We go through two proteins from patent US20080300206.

In data set [1] the target is recombinant wild-type human alpha-synuclein.
Data set [2] deals with alpha synuclein familial mutant A30P.
Data set [3] addresses alpha synuclein familial mutant E46K.
For data set [4], the target named is alpha synuclein familial mutant A53T.

Chain of beta synuclein, Q16143 (Q16143 whole entry): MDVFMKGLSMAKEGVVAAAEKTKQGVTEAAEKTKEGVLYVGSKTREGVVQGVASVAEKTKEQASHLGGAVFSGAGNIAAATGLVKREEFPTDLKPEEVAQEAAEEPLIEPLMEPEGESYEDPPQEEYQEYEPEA

B1: IKBKB (protein)
chain: MSWSPSLTTQTCGAWEMKERLGTGGFGNVIRWHNQETGEQIAIKQCRQELSPRNRERWCLEIQIMRRLTHPNVVAARDVPEGMQNLAPNDLPLLAMEYCQGGDLRKYLNQFENCCGLREGAILTLLSDIASALRYLHENRIIHRDLKPENIVLQQGEQRLIHKIIDLGYAKELDQGSLCTSFVGTLQYLAPELLEQQKYTVTVDYWSFGTLAFECITGFRPFLPNWQPVQWHSKVRQKSEVDIVVSEDLNGTVKFSSSLPYPNNLNSVLAERLEKWLQLMLMWHPRQRGTDPTYGPNGCFKALDDILNLKLVHILNMVTGTIHTYPVTEDESLQSLKARIQQDTGIPEEDQELLQEAGLALIPDKPATQCISDGKLNEGHTLDMDLVFLFDNSKITYETQISPRPQPESVSCILQEPKRNLAFFQLRKVWGQVWHSIQTLKEDCNRLQQGQRAAMMNLLRNNSCLSKMKNSMASMSQQLKAKLDFFKTSIQIDLEKYSEQTEFGITSDKLLLAWREMEQAVELCGRENEVKLLVERMMALQTDIVDLQRSPMGRKQGGTLDDLEEQARELYRRLREKPRDQRTEGDSQEMVRLLLQAIQSFEKKVRVIYTQLSKTVVCKQKALELLPKVEEVVSLMNEDEKTVVRLQEKRQKELWNLLKIACSKVRGPVSGSPDSMNASRLSQPGQLMSQPSTASNSLPEPAKKSEELVAEAHNLCTLLENAIQDTVREQDQSFTALDWSWLQTEEEEHSCLEQAS
As for B1, the “in vitro kinase reaction, phosphorylation of alpha-synuclein” value in data set [1] was “shown to be incapable of directly phosphorylating alpha-synuclein”.

B2: Polo like kinase 2 (PLK2) (protein)
chain: MELLRTITYQPAASTKMCEQALGKGCGADSKKKRPPQPPEESQPPQSQAQVPPAAPHHHHHHSHSGPEISRIIVDPTTGKRYCRGKVLGKGGFAKCYEMTDLTNNKVYAAKIIPHSRVAKPHQREKIDKEIELHRILHHKHVVQFYHYFEDKENIYILLEYCSRRSMAHILKARKVLTEPEVRYYLRQIVSGLKYLHEQEILHRDLKLGNFFINEAMELKVGDFGLAARLEPLEHRRRTICGTPNYLSPEVLNKQGHGCESDIWALGCVMYTMLLGRPPFETTNLKETYRCIREARYTMPSSLLAPAKHLIASMLSKNPEDRPSLDDIIRHDFFLQGFTPDRLSSSCCHTVPDFHLSSPAKNFFKKAAAALFGGKKDKARYIDTHNRVSKEDEDIYKLRHDLKKTSITQQPSKHRTDEELQPPTTTVARSGTPAVENKQQIGDAIRMIVRGTLGSCSSSSECLEDSTMGSVADTVARVLRGCLENMPEADCIPKEQLSTSFQWVTKWVDYSNKYGFGYQLSDHTVGVLFNNGAHMSLLPDKKTVHYYAELGQCSVFPATDAPEQFISQVTVLKYFSHYMEENLMDGGDLPSVTDIRRPRLYLLQWLKSDKALMMLFNDGTFQVNFYHDHTKIIICSQNEEYLLTYINEDRISTTFRLTTLLMSGCSSELKNRMEYALNMLLQRCN
B2: the “PLK2 activity in vitro, autoradiography” value in data set [2] is “the mutant alpha-synucleins were phosphorylated more at a given concentration (especially at lower concentrations) than WT”. In addition, in data set [1], the Fold Change in Percent Synuclein Phosphorylation, HEK-293 overexpression was 21.2 fold; the “PLK2 activity in vitro, autoradiography” value was “PLK2 was found to be more active against wild-type alpha synuclein than beta synuclein”; the “Proportion of total synuclein that is phoshorylated at ser-129, HEK-293 overexpression, ELISA” value is 42.3%; the “S129 phosphorylation, immunoblot (11A5), kinase:AS 1:200 molar” value is “Prominent signals came from GRK6, CKI, CKII and PLK2”. In data set [1], the “S129 phosphorylation, immunoblot (11A5), rank of signal” value is recorded as “CKI>GRK6>PLK2>GRK4>GRK5>GRK2”; the “extent of S129 phosphorylation by mass spectrometry after co-expression in bacteria” value is recorded as “more than 95% phosphorylated”; the “in vitro biochemical assay, phosphorylation of synuclein” value is “PLK2 and PLK3 having extremely robust phosphorylation of synuclein”; the “in vitro kinase reaction, phosphorylation of alpha-synuclein at serine 129” value is “capable of phosphorylating alpha-synuclein specifically at serine 129 and did not phosphorylate serine 87 in vitro”. The “phospho ser-129 level in vitro, normalised for molarity” value in data set [1] is “roughly equivalent levels of phospho ser-129 between CKI, GRK6 and PLK2”. Also, the “PLK2 activity in vitro, autoradiography” value in data set [3] is given as “the mutant alpha-synucleins were phosphorylated more at a given concentration (especially at lower concentrations) than WT”. The “PLK2 activity in vitro, autoradiography” value in data set [4] is “the mutant alpha-synucleins were phosphorylated more at a given concentration (especially at lower concentrations) than WT”. In the data set with beta synuclein, Q16143, the “PLK2 activity in vitro, autoradiography” value is given as “minimally against beta synuclein”.
